# Results reported in patent US20190202912A1 (NEXTCURE, published 2019).
# T1: S15-extra cellular domain (ECD) monomer (human, UniProt Q6ZMC9 20-263)
# T1 construct: also called S15 monomer protein
# T1 sequence: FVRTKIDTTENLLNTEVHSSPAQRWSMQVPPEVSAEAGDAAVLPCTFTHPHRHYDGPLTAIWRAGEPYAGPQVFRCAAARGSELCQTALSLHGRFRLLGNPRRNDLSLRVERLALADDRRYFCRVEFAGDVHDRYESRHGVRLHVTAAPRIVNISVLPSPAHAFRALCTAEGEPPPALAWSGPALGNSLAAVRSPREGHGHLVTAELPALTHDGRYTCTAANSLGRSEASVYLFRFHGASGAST
# Biological target: T1, S15-extra cellular domain (ECD) monomer
# Assay: BLI (Octet RED96), mAb on anti-human Fc sensors, S15-ECD monomer in solution, global fit
# Experimental: Optimized KD experiments were performed on a ForteBio Octet RED96 instrument using anti-human Fc capture (AHC, 18-5060; ForteBio) sensors. Assay buffer was PBS containing 0.05% Tween-20 and regeneration buffer was 10 mM glycine (pH 1.5). First the antibodies were loaded at 1 μg/mL for 600 seconds. This was followed by a 60 second baseline step, a 300 second association step in S15-extra cellular domain (ECD) monomer, and finally a 1200 second dissociation step. The monomer concentrations ranged from 100 nM to 1.56 nM in a two-fold dilution series and a blank well was included. Data was processed using ForteBio's Data Analysis Software 7.0; a global fit was used, along with reference well subtraction. Reported values are the average of at least three independent octet runs.
Kd [nM],koff [s⁻¹],kon [M⁻¹ s⁻¹],Binder
0.5,0.000175,348000,"80A (antibody, V domains shown, Mouse anti-human Siglec-15 mAb; also called NC80) VH: QVQLKQSGAELVRPGASVKLSCRASGYTFTDFYINWVKQRPGQGLEWIARIYPGSDETYYNEKFKDKVTLTAEKSSSTAYMQLSSLTSEDSAVYFCALWFFDVWGTGTTVTVSS VL: DIVMTQSPSSLTVTAGEKVTMSCKSNQSLLNSGDQKNYLTWYQQKPGQPPKLLIYWASTRESGVPDRFTGSGSGTDFTLTISSVQAEDLAIYYCQNDYSYPLTFGAGTKLELK"
0.88,0.000162,185000,"93B (antibody, V domains shown, Mouse anti-human Siglec-15 mAb; also called NC93) VH: QVQLKQSGAELVRPGASVKLSCKASGYTFTDYYINWVKQRPGQGLEWIARIYPGNGNTDYNEKFKDKATLTAEKSSTTAYIQLSSLTSEDSAVYFCCLWYFDVWGTGTTVTVSS VL: DIVMTQSPSSLTVTAGEKVTMSCKSSQSLLNSGNQKNYLTWYQQKPGQPPKLLIYWASTRESGVPDRFTGSGSGTDFTLTISNVQPEDLAVYYCQNDYSFPFTFGSGTELEMK"
1.19,0.000415,353000,"83B (antibody, V domains shown, Mouse anti-human Siglec-15 mAb; also called NC83) VH: EVQLQQSGPELVKPGASVKMSCKASGYTFTDYNMHWVKQSHGKSLEWIGYINPNNGGTSYNQKFKDKATLTVNKSSSTAFMELRSLASEDSAVYYCARSDWEDCWGQGTTLTVSS VL: EIQMTQSPSSMSASLGDRITITCQATQDIVKNLNWYQQKPGKPPSFLIYYATELAEGVPSRFSGSGSGSDYSLTISNLESEDFADYYCLQFYEFPYTFGGGTKLEIK"
0.58,0.000174,317000,"1C3 (antibody, V domains shown, Mouse anti-human Siglec-15 mAb) VH: QVQLKQSGAELVKPGASVKISCKASGYIFTDYYVNWVKQRPGQGLEWIGKIGPGSVSIYYNEKFKGKATLTADKSSSTAYMQLSSLTSEDSAVYFCASYYYGFAYWGQGTLVTVSA VL: DIVMTQAAPSVPVTPGESVSISCRSSKSLLHSNGNTYLYWFLQRPGQSPQLLIYRMSNLASGVPDRFGGSGSGTAFTLRISRVEAEDVGFYYCMQHLEYPYTFGGGTRLEIK"
0.89,0.00023,292000,"8C8 (antibody, V domains shown, Mouse anti-human Siglec-15 mAb) VH: QVQLKQSGAELVKPGASVKISCKASGYTFTDYYVNWVKQRPGQGLEWIGKIGPESVSIYYSEKFKAKATLTADKSSSTAYMQLSSLTSEDSAVYFCASYYYGFAYWGQGTLVTVSA VL: DIVMTQAAPSVPVTPGESVSISCRSSKSLLHSNGNTYLYWFLQRPGQSPQLLIYRMSNLASGVPDRFGGSGSGTAFTLRISRVEAEDVGVYYCMQHLEYPYTFGGGTKLEIK"
0.6,0.000178,306000,"3H10 (antibody, V domains shown, Mouse anti-human Siglec-15 mAb) VH: EVQLQQSGAELVRPGASVKLSCTASGFNIKDYYMHWVKERPEQGLEWIGRIDPEDGDIEYDPKFQGKATMTADTSSNTAYLQFSSLTSEDTAVYYCVTDYDYDGGWFAYWGQGTLVTVSA VL: QIILTQSPAIMSASPGEKVTMTCSASSSTSFMHWYQQKPGTSPKRWIFDTSKLASGVPGRFIGSGSGTSYSLTISTMEAEDAATYYCHQRSAYPWTFGGGTKLEIK"
0.55,0.000152,277000,"10G9 (antibody, V domains shown, Mouse anti-human Siglec-15 mAb) VH: EVQLLETGGGLVQPGGSRGLSCEGSGFTFSDFWMSWVRQTPGKTLEWIGDINSDGSAVNYAPSIKDQFTIFRDNDKRTLHLQMINVRSEDTATYFCVRYDDYGYFDVWGTGTTVTVSS VL: QAVVTQESALTTSPGETVTLTCRSSTGAVTTSNYANWVQEKPDHLFTGLIGGTNNRAPGVPARFSGSLIGDKAALTITGAQTEDEAIYFCALWYSNHWVFGGGTKLTVL"
1.3,0.00027,209000,"8H8 (antibody, V domains shown, Mouse anti-human Siglec-15 mAb) VH: EVQLLETGGGLVQPGGSRGLSCEGSGFTFSGFWMSWVRQTPGKTLEWIGDINSDGSAINYAPSIKDRFTIFRDNDKNTLYLQMNNVRSEDTATYFCVRYDDYGYFDVWGTGTTVTVSS VL: QAVVTQESALTTSPGETVTLTCRSSSGAVTTGNFANWVQEKPDHLFTGLIGGTNNRAPGVPARFSGSLIGDKAALTITGAQTEDEAIYFCALWYSNHWVFGGGTKLTVL"
